Experimental data reported in article PMC2891049.
Read-outs that look alike come from different tables or passages of the source.

T1: C-reactive protein (UniProt P02741 19-224)
T1 sequence: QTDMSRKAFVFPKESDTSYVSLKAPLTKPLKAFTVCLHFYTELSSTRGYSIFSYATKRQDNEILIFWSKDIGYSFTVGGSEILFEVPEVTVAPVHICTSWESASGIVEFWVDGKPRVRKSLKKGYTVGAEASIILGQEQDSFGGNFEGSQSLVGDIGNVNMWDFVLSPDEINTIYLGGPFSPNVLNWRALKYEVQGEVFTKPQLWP

B1: MB-T (thrombin sensing aptamer) (structured_DNA)
DNA: GATGTCCACGAGGTCTCTATTGCATTCGCACTTCCGATTTTTTCAGTCCGTGGTAGGGCAGGTTGGGGTGACTCGTACGCTGCAGGTCGAC
B2: MB-P (PDGF-BB sensing aptamer) (structured_DNA)
DNA: GATGTCCACGAGGTCTCTGCGGCATCAACAATCTCGAATTTTTTACTCAGGGCACTGCAAGCAATTGTGGTCCCAATGGGCTGAGTATCGTACGCTGCAGGTCGAC

Experiments:
C-reactive protein [1] = biological target: T1, C-reactive protein; assay: pull-down
C-reactive protein [2] = biological target: T1, C-reactive protein; assay: pull-down; remark: listed apart in the source

Binder	binding result (C-reactive protein [1])	binding result (C-reactive protein [2])
B1	no binding	
B2		no binding
